From patent US20210393689A1 (JUNO THERAPEUTICS, published 2021)
Values belong to the binder of their own block, whether it stands above or below them.

Assays:
[1] = biological target: T1, murine GPRC5D (murine, UniProt Q9JIL6 1-344); experiment: Jurkat Nur77-RFP reporter activation after 1:1 co-culture with K562 cells expressing mGPRC5D (indirect read-out)
T1 construct: whole, on cells; also called mGPRC5D; mouse GPRC5D
T1 sequence (looked up): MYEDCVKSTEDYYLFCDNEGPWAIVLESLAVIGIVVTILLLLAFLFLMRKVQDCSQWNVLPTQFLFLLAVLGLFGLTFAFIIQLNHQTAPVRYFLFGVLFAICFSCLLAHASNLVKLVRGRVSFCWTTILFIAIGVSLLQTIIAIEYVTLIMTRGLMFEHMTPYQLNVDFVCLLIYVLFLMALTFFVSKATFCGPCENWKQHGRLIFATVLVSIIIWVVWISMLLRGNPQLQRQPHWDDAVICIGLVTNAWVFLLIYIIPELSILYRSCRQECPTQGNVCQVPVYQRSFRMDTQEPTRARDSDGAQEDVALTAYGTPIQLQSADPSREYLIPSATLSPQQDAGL
Protocol: K562 cells were transduced to express human (hGPRC5D), cGPRC5D or mGPRC5D. The Jurkat Nur77-RFP activation reporter line described above was transduced with polynucleotides constructs encoding CARs described in Example 3. […] Reporter cells were also incubated with parental K562 cells as a negative control.

[2] = biological target: T2, CD86 (human, UniProt P42081); experiment: cell microarray of HEK293 cells expressing the indicated surface protein, probed with scFv-mIgG2a Fc
T2 construct: expressed on the surface of HEK293 cells in a cell microarray spot; target of the positive control
T2 sequence (single chain, looked up): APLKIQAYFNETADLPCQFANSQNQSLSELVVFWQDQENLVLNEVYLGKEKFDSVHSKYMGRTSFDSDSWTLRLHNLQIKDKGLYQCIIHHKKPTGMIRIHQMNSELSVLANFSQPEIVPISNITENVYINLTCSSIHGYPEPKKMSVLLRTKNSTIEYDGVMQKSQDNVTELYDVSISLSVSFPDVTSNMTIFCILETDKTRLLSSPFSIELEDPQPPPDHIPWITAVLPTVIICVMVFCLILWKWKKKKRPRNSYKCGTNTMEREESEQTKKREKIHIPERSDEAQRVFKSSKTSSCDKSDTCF
Protocol: (§1) Cell microarrays were assessed for binding by automated fluorescent microscopy with a fluorescently labeled anti-mIgG2a secondary antibody.

[3] = biological target: T3, EGFR (human, UniProt P00533); experiment: as above
T3 construct: expressed on the surface of HEK293 cells in a cell microarray spot
Protocol: as §1

[4] = biological target: T4, SLC38A2 (human, UniProt Q96QD8); experiment: as above
T4 construct: expressed on the surface of HEK293 cells in a cell microarray spot
T4 sequence (single chain, looked up): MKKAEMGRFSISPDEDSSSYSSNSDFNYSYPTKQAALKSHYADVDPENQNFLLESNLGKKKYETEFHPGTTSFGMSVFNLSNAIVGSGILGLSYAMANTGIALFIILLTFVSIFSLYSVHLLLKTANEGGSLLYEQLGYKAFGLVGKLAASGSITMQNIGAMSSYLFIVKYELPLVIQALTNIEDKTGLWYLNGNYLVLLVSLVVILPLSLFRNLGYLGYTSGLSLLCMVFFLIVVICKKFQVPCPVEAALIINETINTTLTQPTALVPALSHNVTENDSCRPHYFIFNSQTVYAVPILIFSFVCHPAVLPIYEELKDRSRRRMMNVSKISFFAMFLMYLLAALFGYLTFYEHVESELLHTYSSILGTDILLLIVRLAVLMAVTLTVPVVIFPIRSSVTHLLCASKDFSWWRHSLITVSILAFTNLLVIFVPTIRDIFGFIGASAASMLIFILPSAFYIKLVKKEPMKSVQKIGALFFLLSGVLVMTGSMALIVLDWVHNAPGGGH
Protocol: as §1

binding result [1]: no binding
B1: GPRC5D-203 VL/VH - long (anti-GPRC5D CAR: GPRC5D-203 VL/VH scFv, long spacer, CD28 transmembrane domain, 4-1BB and CD3zeta signaling domains) (other)
chain: SSELTQDPAVSVALGQTVRITCQGDSLRSYYASWYQQKPGQAPVLVIYGKNNRPSGIPDRFSGSSSGNTASLTITGAQAEDEADYYCNSRDSSGNPPVVFGGGTKLTVLGSRGGGGSGGGGSGGGGSLEMAQVQLVESGGGLVHPGGSLRLSCAASGFTFRSHSMNWVRQAPGKGLEWVSSISSDSTYTYYADSVKGRFTISRDNAKNSLYLQMNSLRAEDTAVYYCARSGGQWKYYDYWGQGTLVTVSSESKYGPPCPPCPAPPVAGPSVFLFPPKPKDTLMISRTPEVTCVVVDVSQEDPEVQFNWYVDGVEVHNAKTKPREEQFQSTYRVVSVLTVLHQDWLNGKEYKCKVSNKGLPSSIEKTISKAKGQPREPQVYTLPPSQEEMTKNQVSLTCLVKGFYPSDIAVEWESNGQPENNYKTTPPVLDSDGSFFLYSRLTVDKSRWQEGNVFSCSVMHEALHNHYTQKSLSLSLGKMFWVLVVVGGVLACYSLLVTVAFIIFWVKRGRKKLLYIFKQPFMRPVQTTQEEDGCSCRFPEEEEGGCELRVKFSRSADAPAYQQGQNQLYNELNLGRREEYDVLDKRRGRDPEMGGKPRRKNPQEGLYNELQKDKMAEAYSEIGMKGERRRGKGHDGLYQGLSTATKDTYDALHMQALPPR
notes: Chimeric antigen receptor on the surface of Jurkat Nur77-RFP reporter cells or primary T cells; signal peptide left out; In the reporter constructs a T2A-GFP follows the CAR, so T2A residues may remain at the C-terminus

binding result [2]: no binding
binding result [3]: no binding
binding result [4]: no binding
B2: anti-GPRC5D-203 VL/VH scFv (SEQ ID NO: 8) fused to an mIgG2a Fc (Fc fusion, not shown: a dimerising Fc or GST; small tags and cut ends)
scFv: SSELTQDPAVSVALGQTVRITCQGDSLRSYYASWYQQKPGQAPVLVIYGKNNRPSGIPDRFSGSSSGNTASLTITGAQAEDEADYYCNSRDSSGNPPVVFGGGTKLTVLGSRGGGGSGGGGSGGGGSLEMAQVQLVESGGGLVHPGGSLRLSCAASGFTFRSHSMNWVRQAPGKGLEWVSSISSDSTYTYYADSVKGRFTISRDNAKNSLYLQMNSLRAEDTAVYYCARSGGQWKYYDYWGQGTLVTVSS
notes: also called scFv-Fc
